Measurements reported in paper PMC9482650, “Quantitative fragmentomics allow affinity mapping of interactomes” (Nature Communications, 2022).

How the values were obtained:
Experiment in all cases: holdup assay
Parameters in all cases: key: below the threshold = too weak to quantify, mostly under pKd 3.1 to 4
APBA3_1, O96018 = molecular target: T1, APBA3_1, O96018
T1 sequence (O96018 389-490, limits assumed, looked up): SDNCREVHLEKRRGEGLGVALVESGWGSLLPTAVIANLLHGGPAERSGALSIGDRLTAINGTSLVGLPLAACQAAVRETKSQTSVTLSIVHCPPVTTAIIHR

ARHGAP21, Q5T5U3 = molecular target: T2, ARHGAP21, Q5T5U3
T2 sequence (Q5T5U3 45-169, limits assumed, looked up): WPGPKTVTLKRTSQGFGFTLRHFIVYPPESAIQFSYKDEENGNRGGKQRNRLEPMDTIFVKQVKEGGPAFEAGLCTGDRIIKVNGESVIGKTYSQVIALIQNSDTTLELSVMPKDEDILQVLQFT

DFNB31_3, Q9P202 = molecular target: T3, DFNB31_3, Q9P202
T3 sequence (Q9P202 811-907, limits assumed, looked up): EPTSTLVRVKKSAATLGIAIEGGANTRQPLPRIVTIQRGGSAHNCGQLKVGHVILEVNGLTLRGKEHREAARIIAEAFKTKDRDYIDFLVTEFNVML

DLG1_2, Q12959 = molecular target: DLG1_2, Q12959
DLG1_2, Q12959, sequence (Q12959 314-412): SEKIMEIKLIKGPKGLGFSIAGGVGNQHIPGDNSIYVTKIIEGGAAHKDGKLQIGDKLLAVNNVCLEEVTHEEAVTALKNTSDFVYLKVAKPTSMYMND

DLG2_2, Q15700 = molecular target: DLG2_2, Q15700
DLG2_2, Q15700, sequence (Q15700 189-283): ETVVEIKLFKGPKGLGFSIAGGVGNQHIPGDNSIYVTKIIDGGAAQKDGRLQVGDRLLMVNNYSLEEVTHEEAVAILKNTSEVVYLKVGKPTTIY

DLG4_3, P78352 = molecular target: DLG4_3, P78352
DLG4_3, P78352, sequence (P78352 306-403): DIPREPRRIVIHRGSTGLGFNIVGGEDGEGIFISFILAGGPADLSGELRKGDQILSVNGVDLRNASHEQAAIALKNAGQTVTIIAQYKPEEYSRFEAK

DLG5_1, Q8TDM6 = molecular target: DLG5_1, Q8TDM6
DLG5_1, Q8TDM6, sequence (Q8TDM6 617-713): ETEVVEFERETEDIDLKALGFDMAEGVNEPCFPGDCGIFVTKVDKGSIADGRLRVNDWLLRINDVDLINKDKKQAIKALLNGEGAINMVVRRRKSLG

DVL3, Q92997 = molecular target: T4, DVL3, Q92997
T4 sequence (Q92997 244-331, limits assumed, looked up): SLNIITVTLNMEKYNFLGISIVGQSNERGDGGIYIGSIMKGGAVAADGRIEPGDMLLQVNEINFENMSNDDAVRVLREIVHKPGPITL

FRMPD2_1, Q68DX3 = molecular target: FRMPD2_1, Q68DX3
FRMPD2_1, Q68DX3, sequence (Q68DX3 770-861): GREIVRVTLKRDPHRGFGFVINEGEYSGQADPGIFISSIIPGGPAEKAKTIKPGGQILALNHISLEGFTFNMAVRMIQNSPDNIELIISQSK

FRMPD3, Q5JV73 = molecular target: FRMPD3, Q5JV73
FRMPD3, Q5JV73, sequence (Q5JV73 12-100): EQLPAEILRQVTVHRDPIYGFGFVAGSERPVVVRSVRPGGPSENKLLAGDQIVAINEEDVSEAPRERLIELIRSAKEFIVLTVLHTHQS

GRIP1_2, Q9Y3R0 = molecular target: T5, GRIP1_2, Q9Y3R0
T5 sequence (Q9Y3R0 145-248, limits assumed, looked up): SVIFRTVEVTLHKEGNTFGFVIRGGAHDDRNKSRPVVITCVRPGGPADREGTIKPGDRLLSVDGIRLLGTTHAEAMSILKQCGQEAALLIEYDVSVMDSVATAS

GRIP2_3, Q9C0E4 = molecular target: GRIP2_3, Q9C0E4
GRIP2_3, Q9C0E4, sequence (Q9C0E4 238-339): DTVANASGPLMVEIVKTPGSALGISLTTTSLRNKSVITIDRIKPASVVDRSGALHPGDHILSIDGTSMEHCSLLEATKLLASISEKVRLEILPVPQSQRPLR

GRIP2_6, Q9C0E4 = molecular target: GRIP2_6, Q9C0E4
GRIP2_6, Q9C0E4, sequence (Q9C0E4 648-740): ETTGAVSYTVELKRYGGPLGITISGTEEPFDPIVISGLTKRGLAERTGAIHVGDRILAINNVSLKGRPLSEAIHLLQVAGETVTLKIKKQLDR

GRIP2_7, Q9C0E4 = molecular target: GRIP2_7, Q9C0E4
GRIP2_7, Q9C0E4, sequence (Q9C0E4 934-1023): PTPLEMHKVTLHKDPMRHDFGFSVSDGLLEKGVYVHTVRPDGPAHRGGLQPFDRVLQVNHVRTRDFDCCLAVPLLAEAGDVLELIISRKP

HTRA4, P83105 = molecular target: T6, HTRA4, P83105
T6 sequence (P83105 378-476, limits assumed, looked up): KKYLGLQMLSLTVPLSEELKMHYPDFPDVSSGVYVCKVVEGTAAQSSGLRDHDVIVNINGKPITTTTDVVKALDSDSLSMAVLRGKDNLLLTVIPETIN

IL16_4, Q14005 = molecular target: IL16_4, Q14005
IL16_4, Q14005, sequence (Q14005 1229-1329): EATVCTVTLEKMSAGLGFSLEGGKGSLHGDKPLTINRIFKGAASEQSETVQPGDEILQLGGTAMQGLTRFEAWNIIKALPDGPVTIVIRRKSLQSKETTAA

Inadl_2, Q8NI35 = molecular target: Inadl_2, Q8NI35
Inadl_2, Q8NI35, sequence (Q8NI35 238-335): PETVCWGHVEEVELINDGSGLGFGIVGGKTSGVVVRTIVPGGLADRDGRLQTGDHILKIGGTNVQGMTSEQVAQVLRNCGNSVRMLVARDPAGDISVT

Inadl_8, Q8NI35 = molecular target: Inadl_8, Q8NI35
Inadl_8, Q8NI35, sequence (Q8NI35 1425-1530): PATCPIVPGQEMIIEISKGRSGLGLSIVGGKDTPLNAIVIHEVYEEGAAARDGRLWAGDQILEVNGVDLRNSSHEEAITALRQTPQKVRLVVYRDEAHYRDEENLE

Inadl_9, Q8NI35 = molecular target: Inadl_9, Q8NI35
Inadl_9, Q8NI35, sequence (Q8NI35 1530-1615): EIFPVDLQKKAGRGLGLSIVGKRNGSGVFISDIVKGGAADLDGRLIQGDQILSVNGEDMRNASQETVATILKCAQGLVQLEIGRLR

LAP2, Q96RT1 = molecular target: LAP2, Q96RT1
LAP2, Q96RT1, sequence (Q96RT1 other isoform, or with tags, fused parts or gaps): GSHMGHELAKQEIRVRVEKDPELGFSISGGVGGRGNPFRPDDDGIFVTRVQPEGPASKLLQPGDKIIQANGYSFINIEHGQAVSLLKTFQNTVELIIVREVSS

LDB3, O75112 = molecular target: LDB3, O75112
LDB3, O75112, sequence (O75112 1-94): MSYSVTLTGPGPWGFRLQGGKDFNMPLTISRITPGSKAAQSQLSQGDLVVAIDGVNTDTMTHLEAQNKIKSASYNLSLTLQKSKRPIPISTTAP

LRRC7, Q96NW7 = molecular target: T7, LRRC7, Q96NW7
T7 sequence (Q96NW7 1440-1537, limits assumed, looked up): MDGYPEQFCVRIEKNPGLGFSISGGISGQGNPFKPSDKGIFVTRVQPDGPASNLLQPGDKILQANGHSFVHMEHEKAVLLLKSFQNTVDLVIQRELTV

MAGI2_2, Q86UL8 = molecular target: MAGI2_2, Q86UL8
MAGI2_2, Q86UL8, sequence (Q86UL8 410-522): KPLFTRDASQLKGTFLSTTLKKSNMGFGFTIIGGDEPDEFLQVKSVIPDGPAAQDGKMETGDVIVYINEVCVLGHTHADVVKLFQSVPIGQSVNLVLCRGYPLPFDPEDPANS

MAST2, Q6P0Q8 = molecular target: MAST2, Q6P0Q8
MAST2, Q6P0Q8, sequence (Q6P0Q8 1099-1202): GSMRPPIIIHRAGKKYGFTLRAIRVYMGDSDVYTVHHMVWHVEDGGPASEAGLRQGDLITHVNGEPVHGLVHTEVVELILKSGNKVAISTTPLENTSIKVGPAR

MPP6, Q9NZW5 = molecular target: T8, MPP6, Q9NZW5
T8 sequence (Q9NZW5 125-219, limits assumed, looked up): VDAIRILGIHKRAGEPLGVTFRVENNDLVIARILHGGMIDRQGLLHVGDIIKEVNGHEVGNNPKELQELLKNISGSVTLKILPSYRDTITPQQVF

RHPN1, Q8TCX5 = molecular target: T9, RHPN1, Q8TCX5
T9 sequence (Q8TCX5 508-602, limits assumed, looked up): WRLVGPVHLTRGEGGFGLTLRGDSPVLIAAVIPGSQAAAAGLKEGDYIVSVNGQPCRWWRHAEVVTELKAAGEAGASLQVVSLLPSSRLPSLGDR

SCRIB_1, Q14160 = molecular target: SCRIB_1, Q14160
SCRIB_1, Q14160, sequence (Q14160 718-814): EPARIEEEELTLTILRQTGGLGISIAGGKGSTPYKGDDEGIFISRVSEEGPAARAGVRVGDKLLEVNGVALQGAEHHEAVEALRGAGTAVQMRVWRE

SNX27, Q96L92 = molecular target: SNX27, Q96L92
[1] = plain residues with an end cap or a label only (N-terminal biotin on a linker: ahx)
[2] = plain residues with an end cap or a label only (N-terminal biotin on a linker: ado-ado, ttds)

Binder: SKKNELFSNL [NHERF1, O14745]
- pKd (APBA3_1, O96018; [1]): below the threshold
- pKd (ARHGAP21, Q5T5U3; [1]): below the threshold
- pKd (DFNB31_3, Q9P202; [1]): below the threshold
- pKd (DLG1_2, Q12959; [1]): below the threshold
- pKd (DLG2_2, Q15700; [1]): below the threshold
- pKd (DLG4_3, P78352; [1]): below the threshold
- pKd (DLG5_1, Q8TDM6; [1]): below the threshold
- pKd (DVL3, Q92997; [1]): below the threshold
- pKd (FRMPD2_1, Q68DX3; [1]): below the threshold
- pKd (FRMPD3, Q5JV73; [1]): below the threshold
- pKd (GRIP1_2, Q9Y3R0; [1]): below the threshold
- pKd (GRIP2_3, Q9C0E4; [1]): below the threshold
- pKd (GRIP2_6, Q9C0E4; [1]): below the threshold
- pKd (GRIP2_7, Q9C0E4; [1]): below the threshold
- pKd (HTRA4, P83105; [1]): below the threshold
- pKd (IL16_4, Q14005; [1]): below the threshold
- pKd (Inadl_2, Q8NI35; [1]): below the threshold
- pKd (Inadl_8, Q8NI35; [1]): below the threshold
- pKd (Inadl_9, Q8NI35; [1]): below the threshold
- pKd (LAP2, Q96RT1; [1]): below the threshold
- pKd (LDB3, O75112; [1]): below the threshold
- pKd (LRRC7, Q96NW7; [1]): below the threshold
- pKd (MAGI2_2, Q86UL8; [1]): below the threshold
- pKd (MAST2, Q6P0Q8; [1]): 4.5
- pKd (MPP6, Q9NZW5; [1]): below the threshold
- pKd (RHPN1, Q8TCX5; [1]): 3.76
- pKd (SCRIB_1, Q14160; [1]): below the threshold
- pKd (SNX27, Q96L92; [1]): below the threshold

Binder: SNAKAVETDV [KCNA4, P22459]
- pKd (APBA3_1, O96018; [2]): below the threshold
- pKd (ARHGAP21, Q5T5U3; [2]): below the threshold
- pKd (DFNB31_3, Q9P202; [2]): below the threshold
- pKd (DLG1_2, Q12959; [2]): 5.42
- pKd (DLG2_2, Q15700; [2]): 5
- pKd (DLG4_3, P78352; [2]): below the threshold
- pKd (DLG5_1, Q8TDM6; [2]): below the threshold
- pKd (DVL3, Q92997; [2]): below the threshold
- pKd (FRMPD2_1, Q68DX3; [2]): below the threshold
- pKd (FRMPD3, Q5JV73; [2]): below the threshold
- pKd (GRIP1_2, Q9Y3R0; [2]): below the threshold
- pKd (GRIP2_3, Q9C0E4; [2]): below the threshold
- pKd (GRIP2_6, Q9C0E4; [2]): below the threshold
- pKd (GRIP2_7, Q9C0E4; [2]): below the threshold
- pKd (HTRA4, P83105; [2]): below the threshold
- pKd (IL16_4, Q14005; [2]): below the threshold
- pKd (Inadl_2, Q8NI35; [2]): below the threshold
- pKd (Inadl_8, Q8NI35; [2]): below the threshold
- pKd (Inadl_9, Q8NI35; [2]): below the threshold
- pKd (LAP2, Q96RT1; [2]): 4.32
- pKd (LDB3, O75112; [2]): below the threshold
- pKd (LRRC7, Q96NW7; [2]): 3.64
- pKd (MAGI2_2, Q86UL8; [2]): below the threshold
- pKd (MAST2, Q6P0Q8; [2]): 5.18
- pKd (MPP6, Q9NZW5; [2]): below the threshold
- pKd (RHPN1, Q8TCX5; [2]): 4.15
- pKd (SCRIB_1, Q14160; [2]): below the threshold
- pKd (SNX27, Q96L92; [2]): below the threshold
